Measurements as given in patent US20170281764A1 (JN BIOSCIENCES, published 2017).

Tests used:
Test in all cases: flow cytometry titration on CHO-K1 cells transiently expressing the HA-tagged TIGIT mutant, Alexa488 anti-human IgG detection, four-parameter fit of percent of control, nM is from the concentration axis and paragraph 252
T96A = target: T1, T96A
T1 construct: also called HA-tagged human TIGIT with mutation T96A, on CHO-K1 cells
T1 single chain: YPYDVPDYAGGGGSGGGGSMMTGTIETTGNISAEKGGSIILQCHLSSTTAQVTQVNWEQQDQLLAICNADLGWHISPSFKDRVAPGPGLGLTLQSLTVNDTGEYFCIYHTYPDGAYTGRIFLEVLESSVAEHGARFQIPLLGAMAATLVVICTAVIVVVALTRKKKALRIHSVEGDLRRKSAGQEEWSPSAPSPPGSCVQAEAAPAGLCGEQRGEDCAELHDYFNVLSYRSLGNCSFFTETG
Method: (§1) For flow cytometry analysis of the anti-hTIGIT antibody binding epitope, HA-tagged human TIGIT proteins with or without single amino acid mutation were transiently transfected into CHO-K1 cells. After 24 hr, transfected cells were suspended in HBSS buffer (Thermo Fisher Scientific, Cat#14175095), and incubated with HuTIG1-IgG1.AA antibody at varying concentrations in 50 μL volume. After 1 hr incubation at 4° C., cells were washed and a second incubation with 50 μL Alexa488 conjugated anti-human IgG(H+L) secondary antibody (Thermo Fisher Scientific, Cat#A-11013) was performed to detect cells bound by antibody. Cells were incubated with an anti-HA antibody (Sigma, Cat# H7411) as a positive control, and non-transfected CHO-K1 cells were used as a negative control. The cells were analyzed on an Attune NxT Cytometer (Thermo Fisher Scientific) and the data were processed using FlowJo software. For each mutant, the saturating antibody binding MFI (mean fluorescence intensity) were normalized to 100% POC (percent of control), and no primary antibody binding control MFI were normalized to 0% POC. Data were then fit to a four parameter non-linear sigmoidal curve using GraphPad Prism 7 curve fitting using following formula: Y=Bottom+(Top−Bottom)/(1+10^{((Log EC}^₅₀^{-X)*HillSlope)}).
(§2) All of these residues co-locate to one discrete region on the front ([…] structure of the TIGIT IgV extracellular domain (FIG. 28).

I88A = target: T2, I88A
T2 construct: also called HA-tagged human TIGIT with mutation I88A, on CHO-K1 cells
T2 single chain: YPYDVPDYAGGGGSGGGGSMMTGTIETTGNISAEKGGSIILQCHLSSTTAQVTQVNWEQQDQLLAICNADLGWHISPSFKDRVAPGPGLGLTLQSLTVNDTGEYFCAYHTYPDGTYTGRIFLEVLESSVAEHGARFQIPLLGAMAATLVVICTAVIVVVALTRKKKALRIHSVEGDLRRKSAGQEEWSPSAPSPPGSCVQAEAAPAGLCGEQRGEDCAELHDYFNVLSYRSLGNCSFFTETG
Method: as §1, §2

Y92A = target: T3, Y92A
T3 construct: also called HA-tagged human TIGIT with mutation Y92A, on CHO-K1 cells
T3 single chain: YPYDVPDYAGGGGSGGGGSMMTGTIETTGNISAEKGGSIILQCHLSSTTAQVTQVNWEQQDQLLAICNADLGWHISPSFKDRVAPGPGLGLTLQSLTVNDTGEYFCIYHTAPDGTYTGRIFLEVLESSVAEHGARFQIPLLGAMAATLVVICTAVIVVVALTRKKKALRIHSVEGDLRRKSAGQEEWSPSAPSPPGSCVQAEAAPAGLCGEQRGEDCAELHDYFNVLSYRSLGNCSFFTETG
Method: as §1, §2

F86A = target: T4, F86A
T4 construct: also called HA-tagged human TIGIT with mutation F86A, on CHO-K1 cells
T4 single chain: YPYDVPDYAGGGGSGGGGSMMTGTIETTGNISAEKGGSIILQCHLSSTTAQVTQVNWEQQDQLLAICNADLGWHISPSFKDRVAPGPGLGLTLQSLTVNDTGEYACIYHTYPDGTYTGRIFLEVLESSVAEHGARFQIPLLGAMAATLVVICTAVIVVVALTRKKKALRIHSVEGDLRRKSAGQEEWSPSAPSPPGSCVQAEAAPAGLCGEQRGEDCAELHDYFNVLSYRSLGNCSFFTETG
Method: as §1, §2

I47A = target: T5, I47A
T5 construct: also called HA-tagged human TIGIT with mutation I47A, on CHO-K1 cells
T5 single chain: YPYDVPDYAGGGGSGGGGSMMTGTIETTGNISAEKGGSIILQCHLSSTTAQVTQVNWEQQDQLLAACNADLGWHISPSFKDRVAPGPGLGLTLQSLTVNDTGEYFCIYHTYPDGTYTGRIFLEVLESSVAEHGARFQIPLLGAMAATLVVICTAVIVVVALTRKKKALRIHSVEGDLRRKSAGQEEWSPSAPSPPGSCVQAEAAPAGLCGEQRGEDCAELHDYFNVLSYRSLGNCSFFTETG
Method: as §1, §2

[1] = target: T6, HA-tagged human TIGIT with mutation D51A, on CHO-K1 cells (human, UniProt Q495A1 22-244)
T6 construct: Built as for m17
T6 sequence: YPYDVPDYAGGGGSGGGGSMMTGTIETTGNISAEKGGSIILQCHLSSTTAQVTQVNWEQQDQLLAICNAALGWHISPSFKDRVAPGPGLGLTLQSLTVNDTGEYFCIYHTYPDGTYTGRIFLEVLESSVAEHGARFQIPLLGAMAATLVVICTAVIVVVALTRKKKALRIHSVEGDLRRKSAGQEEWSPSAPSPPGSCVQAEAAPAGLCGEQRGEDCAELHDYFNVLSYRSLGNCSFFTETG
Method: as §1, §2

B1: HuTIG1-IgG1.AA (humanized IgG1/kappa form of TIG1, L234A/L235A) (antibody)
heavy: not shown
light: DIQMTQSPSSLSASVGDRVTITCRASKSISKYLAWYQQKPGKAPKLLIYSGSTLQSGVPSRFSGSGSGTDFTLTISSLQPEDFATYYCQQHNEYPWTFGGGTKVEIKRTVAAPSVFIFPPSDEQLKSGTASVVCLLNNFYPREAKVQWKVDNALQSGNSQESVTEQDSKDSTYSLSSTLTLSKADYEKHKVYACEVTHQGLSSPVTKSFNRGEC
notes: Mature full chains; also called humanized TIG1
- EC50 (T96A): 1.36 nM
- EC50 (I88A): 0.591 nM
- EC50 (Y92A): 2.12 nM
- EC50 (F86A): 0.844 nM
- EC50 (I47A): 1.27 nM
- EC50 [1]: 30.5 nM
